Test results: patent US20170137467A1 (CHROMOTEK, published 2017)

Assays:
Assay in all cases: peptide library pulldown on immobilized Nb, LC-MS of supernatant; ratio vs GFP-Nb control (1 = not captured, 0 = captured)
BC2T S8M library peptide = target: T1, BC2T S8M library peptide (human)
T1 construct: also called BC2TS8X: M
T1 peptide: Ac-PDRKAAVMHWQQ-NH2
Source text: (§1) In total, 12 different BC2T libraries displaying all 20 proteinogenic amino acids in one single position of the peptide were used in immunoprecipitation experiments. […] The direct comparison with the GFP-Nb made it possible to determine the quantitative degree of peptide capture without the need of labeled standards. […] The more peptide was captured the more the value approximates 0. It was not possible to discriminate between isoleucine (I) and leucine (L) peptide versions since these peptides are isobaric.
(§2) To investigate the binding specificity of the BC2T and derived mutants peptide libraries for each amino acid position of the sequence […] (SEQ ID NO:4) were synthesized with acetyl and amide groups located at the N-termini or C-termini respectively (Intavis). […] Incubations were performed in 300 μl PBS/0.01% CHAPS for 1 h on a HulaMixer (Life Technologies). Subsequent to a centrifugation step 10 μl supernatant were analyzed in a LC-MS procedure. Peptides were separated using an UltiMate3000 RSLCnano System (Thermo Scientific), composed of a C18 PepMap100μ-Precolumn (300 μm×5 mm; particle size: 5 μm; pore size: 100 Å—Thermo Scientific) and a C18 analytical column (Acclaim Rapid Separation LC (RSLC) Column: 150 mm×5 mm; particle size: 2.2 μm; pore size: 100 Å—Thermo Scientific). A step gradient was applied starting at 8% and ending after 20 min at 30% eluent B (80% acetonitrile, 20% H₂O, 0.1% formic acid).

BC2T S8F library peptide = target: T2, BC2T S8F library peptide (human)
T2 construct: also called BC2TS8X: F
T2 peptide: Ac-PDRKAAVFHWQQ-NH2
Source text: as §1, §2

BC2T S8W library peptide = target: T3, BC2T S8W library peptide (human)
T3 construct: also called BC2TS8X: W
T3 peptide: Ac-PDRKAAVWHWQQ-NH2
Source text: as §1, §2

BC2T S8N library peptide = target: T4, BC2T S8N library peptide (human)
T4 construct: also called BC2TS8X: N
T4 peptide: Ac-PDRKAAVNHWQQ-NH2
Source text: as §1, §2

BC2T H9V library peptide = target: T5, BC2T H9V library peptide (human)
T5 peptide: Ac-PDRKAAVSVWQQ-NH2
Source text: as §1, §2

BC2T H9P library peptide = target: T6, BC2T H9P library peptide (human)
T6 peptide: Ac-PDRKAAVSPWQQ-NH2
Source text: as §1, §2

BC2T H9T library peptide = target: T7, BC2T H9T library peptide (human)
T7 peptide: Ac-PDRKAAVSTWQQ-NH2
Source text: as §1, §2

BC2T H9N library peptide = target: T8, BC2T H9N library peptide (human)
T8 peptide: Ac-PDRKAAVSNWQQ-NH2
Source text: as §1, §2

BC2T H9R library peptide = target: T9, BC2T H9R library peptide (human)
T9 peptide: Ac-PDRKAAVSRWQQ-NH2
Source text: as §1, §2

[1] = target: T10, BC2T W10V library peptide (human)
T10 construct: also called BC2TW10X: V
T10 peptide: Ac-PDRKAAVSHVQQ-NH2
Source text: as §1, §2

[2] = target: T11, BC2T W10F library peptide (human)
T11 construct: also called BC2TW10X: F
T11 peptide: Ac-PDRKAAVSHFQQ-NH2
Source text: as §1, §2

[3] = target: T12, BC2T W10R library peptide (human)
T12 construct: also called BC2TW10X: R
T12 peptide: Ac-PDRKAAVSHRQQ-NH2
Source text: as §1, §2

[4] = target: T13, BC2T Q11G library peptide (human)
T13 peptide: Ac-PDRKAAVSHWGQ-NH2
Source text: as §1, §2

[5] = target: T14, BC2T Q11(I/L) library peptide, version 2 (N-terminal acetyl, C-terminal amide)
T14 construct: Ile and Leu versions are isobaric; two versions resolved but not assigned; also called I/L2
Source text: as §1, §2

[6] = target: T15, BC2T Q11W library peptide (human)
T15 peptide: Ac-PDRKAAVSHWWQ-NH2
Source text: as §1, §2

[7] = target: T16, BC2T Q11H library peptide (human)
T16 peptide: Ac-PDRKAAVSHWHQ-NH2
Source text: as §1, §2

[8] = target: T17, BC2T Q12(I/L) library peptide, version 1 (N-terminal acetyl, C-terminal amide)
T17 construct: Ile and Leu versions are isobaric; two versions resolved but not assigned; also called I/L1
Source text: as §1, §2

[9] = target: T18, BC2T Q12M library peptide (human)
T18 peptide: Ac-PDRKAAVSHWQM-NH2
Source text: as §1, §2

[10] = target: T19, BC2T Q12P library peptide (human)
T19 peptide: Ac-PDRKAAVSHWQP-NH2
Source text: as §1, §2

[11] = target: T20, BC2T Q12R library peptide (human)
T20 peptide: Ac-PDRKAAVSHWQR-NH2
Source text: as §1, §2

ratio (BC2T S8M library peptide): 1
ratio (BC2T S8F library peptide): 0.9
ratio (BC2T S8W library peptide): 0.9
ratio (BC2T S8N library peptide): 0.5
ratio (BC2T H9V library peptide): 0.5
ratio (BC2T H9P library peptide): 0.9
ratio (BC2T H9T library peptide): 0.4
ratio (BC2T H9N library peptide): 0.2
ratio (BC2T H9R library peptide): 0.1
ratio [1]: 1
ratio [2]: 1
ratio [3]: 1.3
ratio [4]: 0.4
ratio [5]: 0.4
ratio [6]: 0.1
ratio [7]: 0.2
ratio [8]: 0.1
ratio [9]: 0.2
ratio [10]: 0.1
ratio [11]: 0
B1: BC2-Nb(R106E) (VHH)
VHH: QVQLVESGGGLVQPGGSLTLSCTASGFTLDHYDIGWFRQAPGKEREGVSCINNSDDDTYYADSVKGRFTIFMDNAKDTVYLQMNSLKPEDTAIYYCAEARGCKRGEYEYDFWGQGTQVTVSS
notes: Headlock mutant; immobilized on beads in the library pulldown
